Results taken from patent publication US11767353B2, “Trail compositions with reduced immunogenicity” (Theraly Fibrosis, Inc., priority 2020, dated 2023).
pIC50: −log10 of the molar value.

Key:
[1] = tested on: activated primary human hepatic stellate cells (HSCs); assay: Cell cytotoxicity assay on activated hepatic stellate cells (myofibroblasts); assay type: cell-based; details: FIG. 3
Method: (§1) In addition to the standard physico-chemical characterization, the leads were tested for the target potency and off-target toxicity. Initially, selective apoptotic activities of various TLY012 leads were tested in normal (off-target) and myofibroblasts (target cells) by utilizing quiescent and activated primary human hepatic stellate cells (HSCs) respectively. Briefly, quiescent and culture-activated HSCs were incubated with TLY012 leads and cell viability was determined by cell cytotoxicity assays.

[2] = tested on: quiescent primary human hepatic stellate cells (HSCs); assay: Cell cytotoxicity assay on quiescent hepatic stellate cells (off-target); assay type: cell-based; details: high concentrations (100 nM)
Method: as §1

[3] = tested on: primary human hepatocytes; assay: Off-target toxicity in primary human hepatocytes; assay type: cell-based; details: concentrations up to 100 nM
[4] = Formulation stability and freeze-thaw stability; assay type: physicochemical
Description: The stability may be evaluated by measuring the ratio of soluble material to the insoluble material that can be separated by centrifugation. The intact structure of stored material can also be confirmed by IEX-HPLC (SP-NPR) and RP-HPLC (C4).

[5] = tested on: activated human primary pancreatic stellate cells (PSCs); assay: Caspase 3/7 activity and immunoblot in activated pancreatic stellate cells; assay type: cell-based; details: TLY012 30 or 100 ng/ml for 3h
Method: Human primary pancreatic stellate cells (PSCs) and stellate cell medium (SteCM) were obtained from ScienCell Research Laboratories (Carlsbad, Calif.). PSCs were cultured on Poly-L-Lysine coated plates in SteCM medium supplemented with 2% of FBS, 1% of stellate cell growth supplement, and 1% of penicillin/streptomycin solution according to the manufacturer's instructions. Pancreatic cancer associated fibroblasts (CAF08) and maintenance media (PC00B5) were obtained from Vitro Biopharma. 100 of PSCs were culture-activated for 7 to have the confluent population of activated cells or 2×10^4 cells of CAF08 were cultured on a 96 well microplate (Corning, CLS3917) for 24h and were incubated with TLY012 (at 30 ng/ml or 100 ng/ml) for 3h. After incubation, 50 μL of Caspase 3/7 substrate/lysis buffer was added to each well and incubated for 30 min after 30 min of equilibration period to room temperature. The luminescence of each sample was measured on a plate reader (Bio-Tek Instruments Inc) with parameters of 1 min lag time and 0.5 sec/well-read time (n=3).
(§2) For immunoblot, 100 of PSCs were culture activated on a 6 well plate for 7 days or 2×10^5 of CAF08 cells were plated on 6-well plates followed by control treatment or treatment with TLY012 (at 30 ng/ml or 100 ng/ml) for 3h. The lysates from the cells were tested for the presence of Cl.PARP-1 and SMA using Western bot.

[6] = tested on: Human Colon Carcinoma Fibroblasts HC-6231; assay: Caspase 3/7 activity in colon cancer associated fibroblasts; assay type: cell-based; details: TLY012 0-1000 ng/ml for 3h, FIG. 12A
Description: Human Colon Carcinoma Fibroblasts HC-6231 were obtained from Cell Biologics (Catalog Number HC-6231) and maintained in fibroblast media (Cell Biologics, Catalog Number M2267).

[7] = tested on: Pancreatic cancer associated fibroblasts (CAF08)
Method: Pancreatic cancer associated fibroblasts (CAF08) and maintenance media (PC00B5) were obtained from Vitro Biopharma. 100 of PSCs were culture-activated for 7 to have the confluent population of activated cells or 2×10^4 cells of CAF08 were cultured on a 96 well microplate (Corning, CLS3917) for 24h and were incubated with TLY012 (at 30 ng/ml or 100 ng/ml) for 3h. After incubation, 50 μL of Caspase 3/7 substrate/lysis buffer was added to each well and incubated for 30 min after 30 min of equilibration period to room temperature. The luminescence of each sample was measured on a plate reader (Bio-Tek Instruments Inc) with parameters of 1 min lag time and 0.5 sec/well-read time (n=3).
as §2
Pancreatic cancer associated fibroblasts (CAF08) and maintenance media (PC00B5) were obtained from Vitro Biopharma and maintained in Pancreatic Stellate CAF maintenance media (Vitro Biopharma, Cat. No. PC00B5).
After incubation, 50 uL of Caspase 3/7 substrate/lysis buffer from Caspase3/7 Glo assay kit (Promega, Madison USA) was added to each well and incubated for 30 min after 30 min of equilibration period to room temperature. The luminescence of each sample was measured on a plate reader (Bio-Tek Instruments Inc) with parameters of 1 min lag time and 0.5 sec/well-read time (n=3).
For Western blot, 2×10^5 cells were plated on 6-well plates and were incubated with the same cytotoxic agents as indicated followed by Western blot detection of Cl.PARP-1, PD-L1, DR5, DR4, α-SMA, and β-actin.

[8] = Single-dose pharmacokinetics in Cynomolgus monkeys (ELISA, serum)
Description: PK parameters were addressed in Cynomolgus monkeys. This was a single dose, parallel group, dose escalation study in 5 males and 5 females normal Cynomolgus monkeys ranging in age from 34 to 44 months. At the start date of the study body weights ranged from 2.9 to 3.9 kg for males and 2.9 to 3.2 kg for females. Blood samples were collected at time point indicated in Table 3 and serum samples prepared for analyzing drug levels.
A sandwich enzyme-linked immunosorbent assay (ELISA) for human TRAIL was developed to measure the concentrations of TLY012 in monkey serum. Briefly, serum samples were diluted in 0.5% normal monkey serum and incubated with anti-TRAIL capturing antibodies immobilized on ELISA plates. Test samples were analyzed at 1:200-1:168000 dilutions (depending on the predicted concentrations) to fit into the range of the standard curve (97 pg/mL-12.5 ng/mL). All data within the assay range were reported and provided for pharmacokinetic analysis
A compartment model independent pharmacokinetic analysis was conducted on dose and serum concentration-time data with Phoenix 64 WinNonlin software. The parameters addressed: maximum serum concentrations (Cmax), time (Tmax) to reach Cmax, time (Tlast) to reach the last quantifiable concentration (Clast), elimination half-life (t½). Area under the curve from zero to Clast (AUClast), the total area under the curve from zero to infinity (AUC). Total systemic clearance (CL) and steady state volume of distribution (Vss) was calculated for IV group. Clearance (CL/F) and volume of distribution (Vz/F) and bioavailability (F) was computed for the SC groups. In addition, dose-exposure relationship was evaluated by linear regression analysis.

## TLY012: PEGylated (5 kDa PEG-aldehyde) recombinant human TRAIL (114-281) fused to modified isoleucine zipper (miLZ) at N-terminus; SEQ ID NO:30 trimer
[1]
  pIC50: 9.85
[2]
  effect / off-target toxicity on quiescent HSCs: no effect
[2]; listed as TLY012 leads
  effect / off-target toxicity on quiescent HSCs: no off-target toxicity
[3]
  off-target toxicity: did not show any off-target toxicity
[4]; formulated at 21-22 mg/mi, biological activity and HPLC appearance
  resistance to multiple freeze-thaw cycles: resistant to multiple freeze-thaw cycles
[4]; in the presence of physiological concentrations of salt, no detectable precipitation, same IEX-HPLC pattern
  concentration at which formulation was stable: up to 25 mg/ml
[5]
  Cl.PARP-1, immunoblot: detected
[5]; vs control treatment
  caspase 3/7 activity (RLU): activated caspase 3/7
[6]
  apoptosis by Caspase3/7 activity assay: induced apoptosis
[7]; TLY012 30 or 100 ng/ml for 3h
  Cl.PARP-1, immunoblot: detected
[7]; TLY012 30 or 100 ng/ml for 3h, vs control treatment
  caspase 3/7 activity (RLU): activated caspase 3/7
[7]; pancreatic CAF
  protein levels of α-SMA, Western blotting: significantly decreased
[8]; IV 10 mg/kg, female (ID 401)
  AUC: 7780 µg·h/mL
  AUCext: 0.185%
  Cmax: 319 µg/mL
  Tlast: 360 h
  Tmax: 0.250 h
[8]; IV 10 mg/kg, male (ID 1)
  AUC: 8590 µg·h/mL
  AUCext: 0.411%
  Cmax: 289 µg/mL
  Tlast: 360 h
  Tmax: 0.250 h
[8]; SC 2 mg/kg, female (ID 501)
  AUC: 836 µg·h/mL
  AUCext: 1.45%
  Cmax: 12.1 µg/mL
  F (absolute bioavailability): 53.7%
  Tlast: 264 h
  Tmax: 12.0 h
[8]; SC 2 mg/kg, male (ID 101)
  AUC: 642 µg·h/mL
  AUCext: 0.779%
  Cmax: 10.8 µg/mL
  F (absolute bioavailability): 37.4%
  Tlast: 264 h
  Tmax: 6.00 h
[8]; SC 10 mg/kg, female (ID 601)
  AUC: 6190 µg·h/mL
  AUCext: 0.266%
  Cmax: 52.7 µg/mL
  F (absolute bioavailability): 79.6%
  Tlast: 264 h
  Tmax: 48.0 h
[8]; SC 10 mg/kg, male (ID 201)
  AUC: 6480 µg·h/mL
  AUCext: 0.0231%
  Cmax: 51.7 µg/mL
  F (absolute bioavailability): 75.4%
  Tlast: 360 h
  Tmax: 24.0 h
[8]; SC 50 mg/kg, female (ID 701)
  AUC: 44200 µg·h/mL
  AUCext: 1.28%
  Cmax: 296 µg/mL
  F (absolute bioavailability): 114%
  Tlast: 360 h
  Tmax: 24.0 h
[8]; SC 50 mg/kg, male (ID 301)
  AUC: 33400 µg·h/mL
  AUCext: 3.13%
  Cmax: 186 µg/mL
  Tlast: 264 h
  Tmax: 72.0 h
[8]; SC 50 mg/kg, male (ID 301), 50 mg/kg
  F (absolute bioavailability): 77.88%
[8]; SC 50 mg/kg, male (ID 301), listed as TYL012, 50 mg/kg
  F (absolute bioavailability): 77.8%
[8]; dose range 2-50 mg/kg
  dose relationship of maximum serum (Cmax) concentrations: increased dose proportionately
